Kd data for 1 substance are collected here from PMC10325899.

This test concerns the target fluorescein labeled GST-PKM1 (UniProt P14618). Put plainly: MST; 40 nM fluorescein-labelled PKM1 with salt-washed ribosomes titrated from 0 to about 1.5 μM in PBS + 5 mM MgCl2, room temperature; three batches of ribosomes fitted globally to a 1:1 model; binding not fully saturated.

As a reminder, the Kd is the free concentration of one partner at which half of the binding sites on the other are occupied at equilibrium, for simple one-to-one binding.

Sequence of UniProt P14618 (P14618 other isoform, or with tags, fused parts or gaps): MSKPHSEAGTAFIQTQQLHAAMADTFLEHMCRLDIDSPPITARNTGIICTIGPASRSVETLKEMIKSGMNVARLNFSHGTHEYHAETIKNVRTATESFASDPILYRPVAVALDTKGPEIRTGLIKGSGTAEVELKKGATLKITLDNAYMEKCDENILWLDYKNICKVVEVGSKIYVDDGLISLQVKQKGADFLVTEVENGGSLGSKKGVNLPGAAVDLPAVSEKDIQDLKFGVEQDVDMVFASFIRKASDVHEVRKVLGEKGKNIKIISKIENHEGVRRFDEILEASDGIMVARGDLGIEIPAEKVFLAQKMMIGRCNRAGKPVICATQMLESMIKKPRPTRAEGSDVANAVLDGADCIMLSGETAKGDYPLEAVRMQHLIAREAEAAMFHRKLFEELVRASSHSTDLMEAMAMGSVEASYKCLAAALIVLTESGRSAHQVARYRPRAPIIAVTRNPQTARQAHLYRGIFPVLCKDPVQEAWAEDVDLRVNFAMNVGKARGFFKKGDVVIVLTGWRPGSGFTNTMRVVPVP

As for “salt-washed ribosomes isolated from HEK293F cells (from UniProt P36578 1-427) (complex)”, the Kd turned out to be 0.9 µM.
